Values of other authors, collected in patent US7514409B2, “VLA-4 antagonists” (Merck & Co., Inc., priority 2004, dated 2009).

Molecular target: T1, VLA-4 (Homo sapiens, UniProt P13612)
T1 construct: host or cells: circulating VLA-4-bearing leukocytes of trial subjects (in vivo)
Conditions: early clinical trials

lymphocytosis (a surrogate marker for blockade of VLA-4 function): observed
receptor occupancy: > 80%
Substance: natalizumab: humanized monoclonal antibody against α4
